Data as given in article PMC4442680, “Crystal structure of human nicotinic acid phosphoribosyltransferase” (FEBS Open Bio, 2015).

Biological target: the molecule itself
Test: crystal structure; ligand-free enzyme; sitting drops, 15 mg/mL protein preincubated with 1 mM Acetyl-CoA and 5 mM DTT, 0.1 M Sodium cacodylate pH 6.5, 1.7 M Sodium acetate, 4 °C; P212121, two molecules per asymmetric unit; 2.9 Å

B1: human nicotinic acid phosphoribosyltransferase (enzyme, UniProt Q6XQN6 1-538, looked up)
chain: MAAEQDPEARAAARPLLTDLYQATMALGYWRAGRARDAAEFELFFRRCPFGGAFALAAGLRDCVRFLRAFRLRDADVQFLASVLPPDTDPAFFEHLRALDCSEVTVRALPEGSLAFPGVPLLQVSGPLLVVQLLETPLLCLVSYASLVATNAARLRLIAGPEKRLLEMGLRRAQGPDGGLTASTYSYLGGFDSSSNVLAGQLRGVPVAGTLAHSFVTSFSGSEVPPDPMLAPAAGEGPGVDLAAKAQVWLEQVCAHLGLGVQEPHPGERAAFVAYALAFPRAFQGLLDTYSVWRSGLPNFLAVALALGELGYRAVGVRLDSGDLLQQAQEIRKVFRAAAAQFQVPWLESVLIVVSNNIDEEALARLAQEGSEVNVIGIGTSVVTCPQQPSLGGVYKLVAVGGQPRMKLTEDPEKQTLPGSKAAFRLLGSDGSPLMDMLQLAEEPVPQAGQELRVWPPGAQEPCTVRPAQVEPLLRLCLQQGQLCEPLPSLAESRALAQLSLSRLSPEHRRLRSPAQYQVVLSERLQALVNSLCAGQSP
notes: human nicotinic acid phosphoribosyltransferase (EC 2.4.2.11); also called human NaPRTase; hNaPRTase
stoichiometry N: 2
